Test results from IntAct's records for PubMed 22087322.

B1: Interleukin-10 receptor subunit alpha (Mus musculus), Q61727 (parent)
chain: MLSRLLPFLVTISSLSLEFIAYGTELPSPSYVWFEARFFQHILHWKPIPNQSESTYYEVALKQYGNSTWNDIHICRKAQALSCDLTTFTLDLYHRSYGYRARVRAVDNSQYSNWTTTETRFTVDEVILTVDSVTLKAMDGIIYGTIHPPRPTITPAGDEYEQVFKDLRVYKISIRKFSELKNATKRVKQETFTLTVPIGVRKFCVKVLPRLESRINKAEWSEEQCLLITTEQYFTVTNLSILVISMLLFCGILVCLVLQWYIRHPGKLPTVLVFKKPHDFFPANPLCPETPDAIHIVDLEVFPKVSLELRDSVLHGSTDSGFGSGKPSLQTEESQFLLPGSHPQIQGTLGKEESPGLQATCGDNTDSGICLQEPGLHSSMGPAWKQQLGYTHQDQDDSDVNLVQNSPGQPKYTQDASALGHVCLLEPKAPEEKDQVMVTFQGYQKQTRWKAEAAGPAECLDEEIPLTDAFDPELGVHLQDDLAWPPPALAAGYLKQESQGMASAPPGTPSRQWNQLTEEWSLLGVVSCEDLSIESWRFAHKLDPLDCGAAPGGLLDSLGSNLVTLPLISSLQVEE
B2: Interleukin-10 receptor subunit alpha (Homo sapiens), Q13651 (parent)
chain: MLPCLVVLLAALLSLRLGSDAHGTELPSPPSVWFEAEFFHHILHWTPIPNQSESTCYEVALLRYGIESWNSISNCSQTLSYDLTAVTLDLYHSNGYRARVRAVDGSRHSNWTVTNTRFSVDEVTLTVGSVNLEIHNGFILGKIQLPRPKMAPANDTYESIFSHFREYEIAIRKVPGNFTFTHKKVKHENFSLLTSGEVGEFCVQVKPSVASRSNKGMWSKEECISLTRQYFTVTNVIIFFAFVLLLSGALAYCLALQLYVRRRKKLPSVLLFKKPSPFIFISQRPSPETQDTIHPLDEEAFLKVSPELKNLDLHGSTDSGFGSTKPSLQTEEPQFLLPDPHPQADRTLGNREPPVLGDSCSSGSSNSTDSGICLQEPSLSPSTGPTWEQQVGSNSRGQDDSGIDLVQNSEGRAGDTQGGSALGHHSPPEPEVPGEEDPAAVAFQGYLRQTRCAEEKATKTGCLEEESPLTDGLGPKFGRCLVDEAGLHPPALAKGYLKQDPLEMTLASSGAPTGQWNQPTEEWSLLALSSCSDLGISDWSFAHDLAPLGCVAAPGGLLGSFNSDLVTLPLISSLQSSE

Variants of: B1
Settings: with fbw1a_human BTRC

| effect of a mutation on the interaction | Variant |
| --- | --- |
| decreasing interaction strength | MLSRLLPFLVTISSLSLEFIAYGTELPSPSYVWFEARFFQHILHWKPIPNQSESTYYEVALKQYGNSTWNDIHICRKAQALSCDLTTFTLDLYHRSYGYRARVRAVDNSQYSNWTTTETRFTVDEVILTVDSVTLKAMDGIIYGTIHPPRPTITPAGDEYEQVFKDLRVYKISIRKFSELKNATKRVKQETFTLTVPIGVRKFCVKVLPRLESRINKAEWSEEQCLLITTEQYFTVTNLSILVISMLLFCGILVCLVLQWYIRHPGKLPTVLVFKKPHDFFPANPLCPETPDAIHIVDLEVFPKVSLELRDSVLHGSTDAGFGAGKPSLQTEESQFLLPGSHPQIQGTLGKEESPGLQATCGDNTDSGICLQEPGLHSSMGPAWKQQLGYTHQDQDDSDVNLVQNSPGQPKYTQDASALGHVCLLEPKAPEEKDQVMVTFQGYQKQTRWKAEAAGPAECLDEEIPLTDAFDPELGVHLQDDLAWPPPALAAGYLKQESQGMASAPPGTPSRQWNQLTEEWSLLGVVSCEDLSIESWRFAHKLDPLDCGAAPGGLLDSLGSNLVTLPLISSLQVEE [S320A;S324A] |
| disrupting interaction strength | MLSRLLPFLVTISSLSLEFIAYGTELPSPSYVWFEARFFQHILHWKPIPNQSESTYYEVALKQYGNSTWNDIHICRKAQALSCDLTTFTLDLYHRSYGYRARVRAVDNSQYSNWTTTETRFTVDEVILTVDSVTLKAMDGIIYGTIHPPRPTITPAGDEYEQVFKDLRVYKISIRKFSELKNATKRVKQETFTLTVPIGVRKFCVKVLPRLESRINKAEWSEEQCLLITTEQYFTVTNLSILVISMLLFCGILVCLVLQWYIRHPGKLPTVLVFKKPHDFFPANPLCPETPDAIHIVDLEVFPKVSLELRDSVLHGSTDAGFGAGKPSLQTEESQFLLPGSHPQIQGTLGKEESPGLQATCGDNTDAGICLQEPGLHSSMGPAWKQQLGYTHQDQDDSDVNLVQNSPGQPKYTQDASALGHVCLLEPKAPEEKDQVMVTFQGYQKQTRWKAEAAGPAECLDEEIPLTDAFDPELGVHLQDDLAWPPPALAAGYLKQESQGMASAPPGTPSRQWNQLTEEWSLLGVVSCEDLSIESWRFAHKLDPLDCGAAPGGLLDSLGSNLVTLPLISSLQVEE [S320A;S324A;S367A] |

Variants of: B2
Settings: with fbw1a_human BTRC

| effect of a mutation on the interaction | Variant |
| --- | --- |
| disrupting interaction strength | MLPCLVVLLAALLSLRLGSDAHGTELPSPPSVWFEAEFFHHILHWTPIPNQSESTCYEVALLRYGIESWNSISNCSQTLSYDLTAVTLDLYHSNGYRARVRAVDGSRHSNWTVTNTRFSVDEVTLTVGSVNLEIHNGFILGKIQLPRPKMAPANDTYESIFSHFREYEIAIRKVPGNFTFTHKKVKHENFSLLTSGEVGEFCVQVKPSVASRSNKGMWSKEECISLTRQYFTVTNVIIFFAFVLLLSGALAYCLALQLYVRRRKKLPSVLLFKKPSPFIFISQRPSPETQDTIHPLDEEAFLKVSPELKNLDLHGSTDAGFGATKPSLQTEEPQFLLPDPHPQADRTLGNREPPVLGDSCSSGSSNSTDAGICLQEPSLSPSTGPTWEQQVGSNSRGQDDSGIDLVQNSEGRAGDTQGGSALGHHSPPEPEVPGEEDPAAVAFQGYLRQTRCAEEKATKTGCLEEESPLTDGLGPKFGRCLVDEAGLHPPALAKGYLKQDPLEMTLASSGAPTGQWNQPTEEWSLLALSSCSDLGISDWSFAHDLAPLGCVAAPGGLLGSFNSDLVTLPLISSLQSSE [S319A;S323A;S370A] |
| decreasing interaction strength | MLPCLVVLLAALLSLRLGSDAHGTELPSPPSVWFEAEFFHHILHWTPIPNQSESTCYEVALLRYGIESWNSISNCSQTLSYDLTAVTLDLYHSNGYRARVRAVDGSRHSNWTVTNTRFSVDEVTLTVGSVNLEIHNGFILGKIQLPRPKMAPANDTYESIFSHFREYEIAIRKVPGNFTFTHKKVKHENFSLLTSGEVGEFCVQVKPSVASRSNKGMWSKEECISLTRQYFTVTNVIIFFAFVLLLSGALAYCLALQLYVRRRKKLPSVLLFKKPSPFIFISQRPSPETQDTIHPLDEEAFLKVSPELKNLDLHGSTDSGFGSTKPSLQTEEPQFLLPDPHPQADRTLGNREPPVLGDSCSSGSSNSTDAGICLQEPSLSPSTGPTWEQQVGSNSRGQDDSGIDLVQNSEGRAGDTQGGSALGHHSPPEPEVPGEEDPAAVAFQGYLRQTRCAEEKATKTGCLEEESPLTDGLGPKFGRCLVDEAGLHPPALAKGYLKQDPLEMTLASSGAPTGQWNQPTEEWSLLALSSCSDLGISDWSFAHDLAPLGCVAAPGGLLGSFNSDLVTLPLISSLQSSE [S370A] |
| decreasing interaction strength | MLPCLVVLLAALLSLRLGSDAHGTELPSPPSVWFEAEFFHHILHWTPIPNQSESTCYEVALLRYGIESWNSISNCSQTLSYDLTAVTLDLYHSNGYRARVRAVDGSRHSNWTVTNTRFSVDEVTLTVGSVNLEIHNGFILGKIQLPRPKMAPANDTYESIFSHFREYEIAIRKVPGNFTFTHKKVKHENFSLLTSGEVGEFCVQVKPSVASRSNKGMWSKEECISLTRQYFTVTNVIIFFAFVLLLSGALAYCLALQLYVRRRKKLPSVLLFKKPSPFIFISQRPSPETQDTIHPLDEEAFLKVSPELKNLDLHGSTDAGFGATKPSLQTEEPQFLLPDPHPQADRTLGNREPPVLGDSCSSGSSNSTDSGICLQEPSLSPSTGPTWEQQVGSNSRGQDDSGIDLVQNSEGRAGDTQGGSALGHHSPPEPEVPGEEDPAAVAFQGYLRQTRCAEEKATKTGCLEEESPLTDGLGPKFGRCLVDEAGLHPPALAKGYLKQDPLEMTLASSGAPTGQWNQPTEEWSLLALSSCSDLGISDWSFAHDLAPLGCVAAPGGLLGSFNSDLVTLPLISSLQSSE [S319A;S323A] |
